Article PMC10962793, “Structural and functional characterization of sulfurtransferase from Frondihabitans sp. PAMC28461” (PLOS ONE, 2024)

Tests used:
[1] = target: T1, FrST (Frondihabitans sp., UniProt Z9JZO3RSK1); assay: colorimetric ferric thiocyanate assay at […] nm, Michaelis-Menten fit; format: biochemical; conditions: read-out: Kinetic parameters^* / Km
T1 construct: synthetic gene in pET28a, E. coli BL21(DE3); His-tag cleaved with thrombin; model 302 residues; catalytic Cys247

[2] = system: CC(CS)C(=O)O; assay: purified protein; format: biochemical, Frondihabitans sp.; conditions: pH 8.0; 25.0 °C
[3] = system: CS(=O)(=O)S; assay: purified protein; format: biochemical, Frondihabitans sp.; conditions: pH 8.0; 25.0 °C
[4] = system: O=C(O)C(=O)CS; assay: purified protein; format: biochemical, Frondihabitans sp.; conditions: pH 8.0; 25.0 °C
[5] = system: O=C(O)CCS; assay: purified protein; format: biochemical, Frondihabitans sp.; conditions: pH 8.0; 25.0 °C
[6] = system: O=S(=O)(S)c1ccccc1; assay: purified protein; format: biochemical, Frondihabitans sp.; conditions: pH 8.0; 25.0 °C
[7] = target: sulfurtransferase FrST from Frondihabitans sp. PAMC28461 (Frondihabitans sp. PAMC28461); assay: AUC; sedimentation velocity, 20 mM Tris-HCl pH 8.0, 200 mM NaCl, 20°C, 42,000 RPM, 280 nm, SEDFIT

## O=S(O)(O)=S [Sodium thiosulfate]
[1]
  Km: 6.3 ± 0.2 mM

## FrST (Frondihabitans sp.)
[2]
  Km: 4.1 ± 0.4 mM
  Vmax: 17.8 µmol/min/mg
  kcat/Km: 240 M⁻¹ s⁻¹
[3]
  Km: 6.0 ± 0.3 mM
  Vmax: 1490 µmol/min/mg
  kcat/Km: 14200 M⁻¹ s⁻¹
[4]
  Km: 13.9 ± 2.6 mM
  Vmax: 150 µmol/min/mg
  kcat/Km: 610 M⁻¹ s⁻¹
[5]
  Km: 10.7 ± 1.3 mM
  Vmax: 43.7 µmol/min/mg
  kcat/Km: 250 M⁻¹ s⁻¹
[6]
  Km: 6.1 ± 0.9 mM
  Vmax: 7810 µmol/min/mg
  kcat/Km: 73000 M⁻¹ s⁻¹

## sulfurtransferase FrST from Frondihabitans sp. PAMC28461 (enzyme)
[7]
  stoichiometry N: 2
